Experimental findings from US20260167699A1 (Chugai, published 2026) are described below.

The labels stand for the following.
B1: GpH7-A5/GpH7-B3 variant G237_14T/GpL16-k0 (antibody, human IgG1, kappa)
heavy 1: not shown
heavy 2: not shown
light: DIVMTQSPLSLPVTPGEPASISCQASESLVHSNRNTYLHWYLQKPGQSPQLLIYKVSNRFSGVPDRFSGSGSGTDFTLKISRVEAEDVGVYYCSQNTHVPPTFGQGTKVEIERTVAAPSVFIFPPSDEQLKSGTASVVCLLNNFYPREAKVQWKVDNALQSGNSQESVTEQDSKDSTYSLSSTLTLSKADYEKHKVYACEVTHQGLSSPVTKSFNRGEC
notes: copies: 1 + 1 + 2
B2: GpH7-A5/GpH7-B3 variant I336_04F/GpL16-k0 (antibody, human IgG1, kappa)
heavy 1: not shown
heavy 2: not shown
light: B1 light
notes: copies: 1 + 1 + 2
B3: GpH7-A5/GpH7-B3 variant I332_01G/GpL16-k0 (antibody, human IgG1, kappa)
heavy 1: not shown
heavy 2: not shown
light: B1 light
notes: copies: 1 + 1 + 2
B4: GpH7-A5/GpH7-B3 variant I336_01G/GpL16-k0 (antibody, human IgG1, kappa)
heavy 1: not shown
heavy 2: not shown
light: B1 light
notes: copies: 1 + 1 + 2
B5: GpH7-A5/GpH7-B3 variant H268_14T/GpL16-k0 (antibody, human IgG1, kappa)
heavy 1: not shown
heavy 2: not shown
light: B1 light
notes: copies: 1 + 1 + 2
B6: GpH7-A5/GpH7-B3 variant I332_12R/GpL16-k0 (antibody, human IgG1, kappa)
heavy 1: not shown
heavy 2: not shown
light: B1 light
notes: copies: 1 + 1 + 2
B7: GpH7-A5/GpH7-B3 variant I332_08L/GpL16-k0 (antibody, human IgG1, kappa)
heavy 1: not shown
heavy 2: not shown
light: B1 light
notes: copies: 1 + 1 + 2
B8: GpH7-A5/GpH7-B3 variant H268_04F/GpL16-k0 (antibody, human IgG1, kappa)
heavy 1: not shown
heavy 2: not shown
light: B1 light
notes: copies: 1 + 1 + 2
B9: GpH7-A5/GpH7-B3 variant I336_02A/GpL16-k0 (antibody, human IgG1, kappa)
heavy 1: not shown
heavy 2: not shown
light: B1 light
notes: copies: 1 + 1 + 2
B10: GpH7-A5/GpH7-B3 variant H268_07I/GpL16-k0 (antibody, human IgG1, kappa)
heavy 1: not shown
heavy 2: not shown
light: B1 light
notes: copies: 1 + 1 + 2
B11: GpH7-A5/GpH7-B3 variant H268_01G/GpL16-k0 (antibody, human IgG1, kappa)
heavy 1: not shown
heavy 2: not shown
light: B1 light
notes: copies: 1 + 1 + 2
B12: GpH7-A5/GpH7-B3 variant I332_19Q/GpL16-k0 (antibody, human IgG1, kappa)
heavy 1: not shown
heavy 2: not shown
light: B1 light
notes: copies: 1 + 1 + 2
B13: GpH7-A5/GpH7-B3 variant I332_13S/GpL16-k0 (antibody, human IgG1, kappa)
heavy 1: not shown
heavy 2: not shown
light: B1 light
notes: copies: 1 + 1 + 2
B14: GpH7-A5/GpH7-B3 variant H268_10E/GpL16-k0 (antibody, human IgG1, kappa)
heavy 1: not shown
heavy 2: not shown
light: B1 light
notes: copies: 1 + 1 + 2
B15: GpH7-A5/GpH7-B3 variant I332_06M/GpL16-k0 (antibody, human IgG1, kappa)
heavy 1: not shown
heavy 2: not shown
light: B1 light
notes: copies: 1 + 1 + 2
B16: GpH7-A5/GpH7-B3 variant H268_06M/GpL16-k0 (antibody, human IgG1, kappa)
heavy 1: not shown
heavy 2: not shown
light: B1 light
notes: copies: 1 + 1 + 2
B17: GpH7-A5/GpH7-B3 variant I332_03V/GpL16-k0 (antibody, human IgG1, kappa)
heavy 1: not shown
heavy 2: not shown
light: B1 light
notes: copies: 1 + 1 + 2
B18: GpH7-A5/GpH7-B3 variant H268_20W/GpL16-k0 (antibody, human IgG1, kappa)
heavy 1: not shown
heavy 2: not shown
light: B1 light
notes: copies: 1 + 1 + 2
B19: GpH7-A5/GpH7-B3 variant H268_05P/GpL16-k0 (antibody, human IgG1, kappa)
heavy 1: not shown
heavy 2: not shown
light: B1 light
notes: copies: 1 + 1 + 2
B20: GpH7-A5/GpH7-B3 variant H268_11K/GpL16-k0 (antibody, human IgG1, kappa)
heavy 1: not shown
heavy 2: not shown
light: B1 light
notes: copies: 1 + 1 + 2
B21: GpH7-A5/GpH7-B3 variant H268_13S/GpL16-k0 (antibody, human IgG1, kappa)
heavy 1: not shown
heavy 2: not shown
light: B1 light
notes: copies: 1 + 1 + 2
B22: GpH7-A5/GpH7-B3 variant H268_03V/GpL16-k0 (antibody, human IgG1, kappa)
heavy 1: not shown
heavy 2: not shown
light: B1 light
notes: copies: 1 + 1 + 2
B23: GpH7-A5/GpH7-B3 variant I336_03V/GpL16-k0 (antibody, human IgG1, kappa)
heavy 1: not shown
heavy 2: not shown
light: B1 light
notes: copies: 1 + 1 + 2
B24: GpH7-A5/GpH7-B3 variant H268_15Y/GpL16-k0 (antibody, human IgG1, kappa)
heavy 1: not shown
heavy 2: not shown
light: B1 light
notes: copies: 1 + 1 + 2
B25: GpH7-A5/GpH7-B3 variant I332_15Y/GpL16-k0 (antibody, human IgG1, kappa)
heavy 1: not shown
heavy 2: not shown
light: B1 light
notes: copies: 1 + 1 + 2
B26: GpH7-A5/GpH7-B3 variant H268_18N/GpL16-k0 (antibody, human IgG1, kappa)
heavy 1: not shown
heavy 2: not shown
light: B1 light
notes: copies: 1 + 1 + 2
B27: GpH7-A5/GpH7-B3 variant H268_08L/GpL16-k0 (antibody, human IgG1, kappa)
heavy 1: not shown
heavy 2: not shown
light: B1 light
notes: copies: 1 + 1 + 2
B28: GpH7-A5/GpH7-B3 variant H268_02A/GpL16-k0 (antibody, human IgG1, kappa)
heavy 1: not shown
heavy 2: not shown
light: B1 light
notes: copies: 1 + 1 + 2
B29: GpH7-A5/GpH7-B3 variant H268_12R/GpL16-k0 (antibody, human IgG1, kappa)
heavy 1: not shown
heavy 2: not shown
light: B1 light
notes: copies: 1 + 1 + 2
B30: GpH7-A5/GpH7-B3 variant I332_18N/GpL16-k0 (antibody, human IgG1, kappa)
heavy 1: not shown
heavy 2: not shown
light: B1 light
notes: copies: 1 + 1 + 2
B31: GpH7-A5/GpH7-B3 variant I332_14T/GpL16-k0 (antibody, human IgG1, kappa)
heavy 1: not shown
heavy 2: not shown
light: B1 light
notes: copies: 1 + 1 + 2
B32: GpH7-A5/GpH7-B3 variant I332_10E/GpL16-k0 (antibody, human IgG1, kappa)
heavy 1: not shown
heavy 2: not shown
light: B1 light
notes: copies: 1 + 1 + 2
B33: GpH7-A5/GpH7-B3 variant I332_02A/GpL16-k0 (antibody, human IgG1, kappa)
heavy 1: not shown
heavy 2: not shown
light: B1 light
notes: copies: 1 + 1 + 2
B34: GpH7-A5/GpH7-B3 variant H268_09D/GpL16-k0 (antibody, human IgG1, kappa)
heavy 1: not shown
heavy 2: not shown
light: B1 light
notes: copies: 1 + 1 + 2
B35: GpH7-A5/GpH7-B3 variant I332_20W/GpL16-k0 (antibody, human IgG1, kappa)
heavy 1: not shown
heavy 2: not shown
light: B1 light
notes: copies: 1 + 1 + 2
B36: GpH7-A5/GpH7-B3 variant I332_04F/GpL16-k0 (antibody, human IgG1, kappa)
heavy 1: not shown
heavy 2: not shown
light: B1 light
notes: copies: 1 + 1 + 2
B37: GpH7-A5/GpH7-B3 variant H268_19Q/GpL16-k0 (antibody, human IgG1, kappa)
heavy 1: not shown
heavy 2: not shown
light: B1 light
notes: copies: 1 + 1 + 2
B38: GpH7-A5/GpH7-B3 variant I332_05P/GpL16-k0 (antibody, human IgG1, kappa)
heavy 1: not shown
heavy 2: not shown
light: B1 light
notes: copies: 1 + 1 + 2
B39: GpH7-A5/GpH7-B3 variant I332_16H/GpL16-k0 (antibody, human IgG1, kappa)
heavy 1: not shown
heavy 2: not shown
light: B1 light
notes: copies: 1 + 1 + 2
B40: GpH7-A5/GpH7-B3 variant I332_09D/GpL16-k0 (antibody, human IgG1, kappa)
heavy 1: not shown
heavy 2: not shown
light: B1 light
notes: copies: 1 + 1 + 2

The target of this experiment is T1, FcγRIIIa (human, UniProt P08637 17-208).
T1 construct: extracellular domain; also called 3a; FcγRIIIa extracellular domain
T1 sequence (P08637 other isoform, or with tags, fused parts or gaps): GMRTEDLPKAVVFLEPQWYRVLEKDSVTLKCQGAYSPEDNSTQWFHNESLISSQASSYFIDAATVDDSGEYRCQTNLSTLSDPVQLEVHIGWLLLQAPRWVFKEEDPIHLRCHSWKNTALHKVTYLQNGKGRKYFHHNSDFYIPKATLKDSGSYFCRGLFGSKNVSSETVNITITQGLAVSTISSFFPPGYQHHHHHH
Nature of the experiment: SPR (Biacore).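 Also: antibody variants captured on an SPR sensor chip, with FcγRIIIa passed over as analyte in HBS-EP+ buffer at 25 °C.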 A general note: SPR reads the build-up and loss of mass on a sensor chip optically.
For B1, the “He/Con 3a” value was 50.5 % of GpH7-A5/GpH7-B3/GpL16-k0.

As for B2, the “He/Con 3a” value is 93.2 % of GpH7-A5/GpH7-B3/GpL16-k0.

As for B3, the “He/Con 3a” value was 101 % of GpH7-A5/GpH7-B3/GpL16-k0.

Turning to B4, the “He/Con 3a” value is 94.6 % of GpH7-A5/GpH7-B3/GpL16-k0.

On to B5, for which the “He/Con 3a” value is 90.3 % of GpH7-A5/GpH7-B3/GpL16-k0.

On to B6, for which the “He/Con 3a” value was 78.1 % of GpH7-A5/GpH7-B3/GpL16-k0.

With B7, the “He/Con 3a” value is 76 % of GpH7-A5/GpH7-B3/GpL16-k0.

In the case of B8, the “He/Con 3a” value is 96 % of GpH7-A5/GpH7-B3/GpL16-k0.

Turning to B9, the “He/Con 3a” value was 106 % of GpH7-A5/GpH7-B3/GpL16-k0.

Regarding B10, the “He/Con 3a” value is 84.1 % of GpH7-A5/GpH7-B3/GpL16-k0.

With B11, the “He/Con 3a” value was 95.7 % of GpH7-A5/GpH7-B3/GpL16-k0.

B12: the “He/Con 3a” value was 101 % of GpH7-A5/GpH7-B3/GpL16-k0.

Regarding B13, the “He/Con 3a” value was 95.6 % of GpH7-A5/GpH7-B3/GpL16-k0.

With B14, the “He/Con 3a” value is 184 % of GpH7-A5/GpH7-B3/GpL16-k0.

Consider B15, for which the “He/Con 3a” value was 92.5 % of GpH7-A5/GpH7-B3/GpL16-k0.

On to B16, for which the “He/Con 3a” value was 79.5 % of GpH7-A5/GpH7-B3/GpL16-k0.

Turning to B17, the “He/Con 3a” value was 85.2 % of GpH7-A5/GpH7-B3/GpL16-k0.

For B18, the “He/Con 3a” value was 82 % of GpH7-A5/GpH7-B3/GpL16-k0.

In the case of B19, the “He/Con 3a” value is 75.6 % of GpH7-A5/GpH7-B3/GpL16-k0.

Consider B20, for which the “He/Con 3a” value is 81.6 % of GpH7-A5/GpH7-B3/GpL16-k0.

For B21, the “He/Con 3a” value was 121 % of GpH7-A5/GpH7-B3/GpL16-k0.

Regarding B22, the “He/Con 3a” value was 91.4 % of GpH7-A5/GpH7-B3/GpL16-k0.

With B23, the “He/Con 3a” value is 107 % of GpH7-A5/GpH7-B3/GpL16-k0.

In the case of B24, the “He/Con 3a” value is 96.5 % of GpH7-A5/GpH7-B3/GpL16-k0.

As for B25, the “He/Con 3a” value was 92.4 % of GpH7-A5/GpH7-B3/GpL16-k0.

For the molecule B26, the “He/Con 3a” value is 103 % of GpH7-A5/GpH7-B3/GpL16-k0.

In the case of B27, the “He/Con 3a” value is 75.9 % of GpH7-A5/GpH7-B3/GpL16-k0.

For the molecule B28, the “He/Con 3a” value is 121 % of GpH7-A5/GpH7-B3/GpL16-k0.

As to B29, the “He/Con 3a” value is 76 % of GpH7-A5/GpH7-B3/GpL16-k0.

Take B30: the “He/Con 3a” value is 84.9 % of GpH7-A5/GpH7-B3/GpL16-k0.

Turning to B31, the “He/Con 3a” value is 110 % of GpH7-A5/GpH7-B3/GpL16-k0.

B32: the “He/Con 3a” value is 213 % of GpH7-A5/GpH7-B3/GpL16-k0.

For the molecule B33, the “He/Con 3a” value was 103 % of GpH7-A5/GpH7-B3/GpL16-k0.

For the molecule B34, the “He/Con 3a” value is 195 % of GpH7-A5/GpH7-B3/GpL16-k0.

With B35, the “He/Con 3a” value is 116 % of GpH7-A5/GpH7-B3/GpL16-k0.

With B36, the “He/Con 3a” value is 89.3 % of GpH7-A5/GpH7-B3/GpL16-k0.

For the molecule B37, the “He/Con 3a” value was 113 % of GpH7-A5/GpH7-B3/GpL16-k0.

Take B38: the “He/Con 3a” value was 56.3 % of GpH7-A5/GpH7-B3/GpL16-k0.

Regarding B39, the “He/Con 3a” value is 89 % of GpH7-A5/GpH7-B3/GpL16-k0.

Turning to B40, the “He/Con 3a” value was 189 % of GpH7-A5/GpH7-B3/GpL16-k0.
